# Measurements published in the supplement of paper PMC6755084.
# B1: minF1; the commonest letter at each place (parent)
# chain: GAGACCGCAACTGAAAAGTTGTTATCAGAAATGGATGGGTTGAATTTCTGCACGTAGAAGCAAAAGGC
# Variants of: B1
# Assay: fraction ligated after 30 min (ligated reads / total reads); higher = more ligase activity
# Conditions: with F1*subA RNA substrate (template-directed ligation), 42 °C
# How it was run: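 Minimized ligase ribozyme variants came from oligo-pool templates that were PCR-amplified, T7-transcribed and gel-purified. Their ligated and unligated RNAs were separated on gels before barcoded reverse transcription and MiSeq sequencing, with core bases kept only at quality ≥30. The fraction ligated for each variant is its ligated reads as a proportion of all its reads.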
row,Variant,fraction ligated
1,GAGACCGCAACTGAAAAGTTGTTATCAATAATGGATGGGTTGAATTTCTGCACGTAGAAGCAAAAGGC [G28A A29T],0.822
2,GAGACCGCAACTGAAAAGTTGTTATCAACAATGGATGGGTTGAATTTCTGCACGTAGAAGCAAAAGGC [G28A A29C],0.83
3,GAGACCGCAACTGAAAAGTTGTTATCAAGAATGGATGGGTTGAATTTCTGCACGTAGAAGCAAAAGGC [G28A A29G],0.835
4,GAGACCGCAACTGAAAAGTTGTTATCTGAAGTGGATGGGTTGAATTTCTGCACGTAGAAGCAAAAGGC [A27T A31G],0.837
5,GAGACCGCAACTGAAAAGTTGTTATCTGAACTGGATGGGTTGAATTTCTGCACGTAGAAGCAAAAGGC [A27T A31C],0.844
6,GAGACCGCAACTGAAAAGTTGTTATCTGAATTGGATGGGTTGAATTTCTGCACGTAGAAGCAAAAGGC [A27T A31T],0.802
7,GAGACCGCAACTGAAAAGTTGTTATCGGAAATGTATGGGTTGAATTTCTGCACGTAGAAGCAAAAGGC [A27G G34T],0.00742
8,GAGACCGCAACTGAAAAGTTGTTATCGGAAATGAATGGGTTGAATTTCTGCACGTAGAAGCAAAAGGC [A27G G34A],0.207
9,GAGACCGCAACTGAAAAGTTGTTATCGGAAATGCATGGGTTGAATTTCTGCACGTAGAAGCAAAAGGC [A27G G34C],0.00194
10,GAGACCGCAACTGAAAAGTTGTTATCTGAAATGGGTGGGTTGAATTTCTGCACGTAGAAGCAAAAGGC [A27T A35G],0.384
11,GAGACCGCAACTGAAAAGTTGTTATCTGAAATGGCTGGGTTGAATTTCTGCACGTAGAAGCAAAAGGC [A27T A35C],0.406
12,GAGACCGCAACTGAAAAGTTGTTATCTGAAATGGTTGGGTTGAATTTCTGCACGTAGAAGCAAAAGGC [A27T A35T],0.102
13,GAGACCGCAACTGAAAAGTTGTTATCGGAAATGGATGGGTTAAATTTCTGCACGTAGAAGCAAAAGGC [A27G G42A],0.361
14,GAGACCGCAACTGAAAAGTTGTTATCGGAAATGGATGGGTTTAATTTCTGCACGTAGAAGCAAAAGGC [A27G G42T],0.16
15,GAGACCGCAACTGAAAAGTTGTTATCGGAAATGGATGGGTTCAATTTCTGCACGTAGAAGCAAAAGGC [A27G G42C],0.0187
16,GAGACCGCAACTGAAAAGTTGTTATCTGAAATGGAAGGGTTGAATTTCTGCACGTAGAAGCAAAAGGC [A27T T36A],0.122
17,GAGACCGCAACTGAAAAGTTGTTATCTGAAATGGAGGGGTTGAATTTCTGCACGTAGAAGCAAAAGGC [A27T T36G],0.16
18,GAGACCGCAACTGAAAAGTTGTTATCTGAAATGGACGGGTTGAATTTCTGCACGTAGAAGCAAAAGGC [A27T T36C],0.0659
19,GAGACCGCAACTGAAAAGTTGTTATCAAAGATGGATGGGTTGAATTTCTGCACGTAGAAGCAAAAGGC [G28A A30G],0.816
20,GAGACCGCAACTGAAAAGTTGTTATCAAACATGGATGGGTTGAATTTCTGCACGTAGAAGCAAAAGGC [G28A A30C],0.802

row,Variant,fraction ligated
1,GAGACCGCAACTGAAAAGTTGTTATCAAATATGGATGGGTTGAATTTCTGCACGTAGAAGCAAAAGGC [G28A A30T],0.814
2,GAGACCGCAACTGAAAAGTTGTTATCGGAAAAGGATGGGTTGAATTTCTGCACGTAGAAGCAAAAGGC [A27G T32A],0.0468
3,GAGACCGCAACTGAAAAGTTGTTATCGGAAACGGATGGGTTGAATTTCTGCACGTAGAAGCAAAAGGC [A27G T32C],0.0134
4,GAGACCGCAACTGAAAAGTTGTTATCGGAAAGGGATGGGTTGAATTTCTGCACGTAGAAGCAAAAGGC [A27G T32G],0.0179
5,GAGACCGCAACTGAAAAGTTGTTATCAAAAGTGGATGGGTTGAATTTCTGCACGTAGAAGCAAAAGGC [G28A A31G],0.799
6,GAGACCGCAACTGAAAAGTTGTTATCAAAATTGGATGGGTTGAATTTCTGCACGTAGAAGCAAAAGGC [G28A A31T],0.821
7,GAGACCGCAACTGAAAAGTTGTTATCAAAACTGGATGGGTTGAATTTCTGCACGTAGAAGCAAAAGGC [G28A A31C],0.802
8,GAGACCGCAACTGAAAAGTTGTTATCAAAAATGGATGGGTTGACTTTCTGCACGTAGAAGCAAAAGGC [G28A A44C],0.667
9,GAGACCGCAACTGAAAAGTTGTTATCAAAAATGGATGGGTTGAGTTTCTGCACGTAGAAGCAAAAGGC [G28A A44G],0.753
10,GAGACCGCAACTGAAAAGTTGTTATCAAAAATGGATGGGTTGATTTTCTGCACGTAGAAGCAAAAGGC [G28A A44T],0.773
11,GAGACCGCAACTGAAAAGTTGTTATCAAAAATGGATGGGTTGTATTTCTGCACGTAGAAGCAAAAGGC [G28A A43T],0.102
12,GAGACCGCAACTGAAAAGTTGTTATCAAAAATGGATGGGTTGCATTTCTGCACGTAGAAGCAAAAGGC [G28A A43C],0.0816
13,GAGACCGCAACTGAAAAGTTGTTATCAAAAATGGATGGGTTGGATTTCTGCACGTAGAAGCAAAAGGC [G28A A43G],0.0763
14,GAGACCGCAACTGAAAAGTTGTTATCTGAAATGGATGGGTTGCATTTCTGCACGTAGAAGCAAAAGGC [A27T A43C],0.336
15,GAGACCGCAACTGAAAAGTTGTTATCTGAAATGGATGGGTTGTATTTCTGCACGTAGAAGCAAAAGGC [A27T A43T],0.412
16,GAGACCGCAACTGAAAAGTTGTTATCTGAAATGGATGGGTTGGATTTCTGCACGTAGAAGCAAAAGGC [A27T A43G],0.281
17,GAGACCGCAACTGAAAAGTTGTTATCTGAAAAGGATGGGTTGAATTTCTGCACGTAGAAGCAAAAGGC [A27T T32A],0.0711
18,GAGACCGCAACTGAAAAGTTGTTATCTGAAACGGATGGGTTGAATTTCTGCACGTAGAAGCAAAAGGC [A27T T32C],0.0794
19,GAGACCGCAACTGAAAAGTTGTTATCTGAAAGGGATGGGTTGAATTTCTGCACGTAGAAGCAAAAGGC [A27T T32G],0.0604
20,GAGACCGCAACTGAAAAGTTGTTATCTGAAATGGATGGGTTGAATTTCTGCACGTAGAAGCAAAAGGC [A27T],0.824
